Paper PMC12024694, “RNA Binding to CCRRM of PABPN1 Induces Conformation Change”

Key:
[1] = molecular target: T1, PABPN1 CCRRM fragment (coiled coil + RRM) (UniProt Q86U42 114-254); assay: EMSA; 50 uM RNA; protein:RNA ratio 0 to 5; EMSA and SHAPE: 10 mM Tris-HCl pH 8.0, 25 mM KCl, 10 mM NaCl, 1 mM MgCl2, 10% glycerol, 0.5 mM DTT, 25 C, 20 min (1M7 step at 35 C); BLI: room temperature, 0.5; details: protein: recombinant; tags: Trx and His (Ni-NTA) fusion, pET-MG vector
T1 sequence: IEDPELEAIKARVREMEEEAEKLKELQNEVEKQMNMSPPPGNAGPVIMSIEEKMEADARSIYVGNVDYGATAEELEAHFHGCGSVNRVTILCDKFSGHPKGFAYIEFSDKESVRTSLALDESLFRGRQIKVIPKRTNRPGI

[2] = molecular target: T1, PABPN1 CCRRM fragment (coiled coil + …); assay: BLI; kon 3.589e-5 (so in the source), koff 1.34e-3 s-1; room temperature; EMSA and SHAPE: 10 mM Tris-HCl pH 8.0, 25 mM KCl, 10 mM NaCl, 1 mM MgCl2, 10% glycerol, 0.5 mM DTT, 25 C, 20 min (1M7 step at 35 C); BLI: room temperature, 0.5; details: protein: recombinant; tags: Trx and His (Ni-NTA) fusion, pET-MG vector; label: 5' biotin
[3] = molecular target: T1, PABPN1 CCRRM fragment (coiled coil + …); assay: SHAPE footprinting (1M7); A-rich protected, CU-rich partly protected; CA-rich and GU-rich stable, AU-rich more reactive; text elsewhere calls GU-rich moderate affinity; EMSA and SHAPE: 10 mM Tris-HCl pH 8.0, 25 mM KCl, 10 mM NaCl, 1 mM MgCl2, 10% glycerol, 0.5 mM DTT, 25 C, 20 min (1M7 step at 35 C); BLI: room temperature, 0.5; details: protein: recombinant; tags: Trx and His (Ni-NTA) fusion, pET-MG vector
[4] = molecular target: T1, PABPN1 CCRRM fragment (coiled coil + …); assay: EMSA; 40 uM RNA; protein:RNA ratio 0 to 10; EMSA and SHAPE: 10 mM Tris-HCl pH 8.0, 25 mM KCl, 10 mM NaCl, 1 mM MgCl2, 10% glycerol, 0.5 mM DTT, 25 C, 20 min (1M7 step at 35 C); BLI: room temperature, 0.5; details: protein: recombinant; tags: Trx and His (Ni-NTA) fusion, pET-MG vector
[5] = molecular target: T1, PABPN1 CCRRM fragment (coiled coil + …); assay: BLI; kon 4.1e-5 (so in the source), koff 1.71e-3 s-1; text ranks A12 lowest affinity, inconsistent with values; EMSA and SHAPE: 10 mM Tris-HCl pH 8.0, 25 mM KCl, 10 mM NaCl, 1 mM MgCl2, 10% glycerol, 0.5 mM DTT, 25 C, 20 min (1M7 step at 35 C); BLI: room temperature, 0.5; details: protein: recombinant; tags: Trx and His (Ni-NTA) fusion, pET-MG vector; label: 5' biotin
[6] = molecular target: T1, PABPN1 CCRRM fragment (coiled coil + …); assay: BLI; kon 4.24e-5 (so in the source), koff 2.031e-3 s-1; text ranks A18 intermediate, inconsistent with values; EMSA and SHAPE: 10 mM Tris-HCl pH 8.0, 25 mM KCl, 10 mM NaCl, 1 mM MgCl2, 10% glycerol, 0.5 mM DTT, 25 C, 20 min (1M7 step at 35 C); BLI: room temperature, 0.5; details: protein: recombinant; tags: Trx and His (Ni-NTA) fusion, pET-MG vector; label: 5' biotin

B1: A-rich RNA (ssRNA)
RNA: UAAUACGACUCACUAUAGGGUGGUCAGUCGAGUGGAAAAAAAAAAAAAAAAAAGGGCGGCAUGGUCCCAGCCUCCU
binding result [1]: binds

B2: A6 (ssRNA)
RNA: AAAAAA
Kd [2]: 3.38 nM

B3: RE_A-rich RNA (structured_RNA)
RNA: CCUUCGGGCCAAAUUUAUUUAUUUAUUUAUUUAGCUGACGAUAAAAAAAAAAAAAAAAAACCACACACACAGGAAUCGACUCUGUUUGUUUGUGUUUGUUUGUACUGAAUUGGCACUUUUCCCCUUUUCCCUUUCUGGACUGGCAUCGAUCCGGUUCGCCGGAUCCAAAUCGGGCUUCGGUCCGGUUC
binding result [3]: binds

B4: U-rich RNA (ssRNA)
RNA: UAAUACGACUCACUAUAGGGUGGUCAGUCGAGUGGUUUUUUUUUUUUUUUUUUGGGCGGCAUGGUCCCAGCCUCCU
binding result [4]: no binding

B5: A12 (ssRNA)
RNA: AAAAAAAAAAAA
Kd [5]: 4.17 nM

B6: A18 (ssRNA)
RNA: AAAAAAAAAAAAAAAAAA
Kd [6]: 4.79 nM
